Consider one substance from article PMC5638582.

The target in the experiment is Erv1 with a C-terminal histidine tag (Erv1-His) (S. cerevisiae) (UniProt P27882). Description: pull-down.
Sequence of UniProt P27882 (P27882 whole entry): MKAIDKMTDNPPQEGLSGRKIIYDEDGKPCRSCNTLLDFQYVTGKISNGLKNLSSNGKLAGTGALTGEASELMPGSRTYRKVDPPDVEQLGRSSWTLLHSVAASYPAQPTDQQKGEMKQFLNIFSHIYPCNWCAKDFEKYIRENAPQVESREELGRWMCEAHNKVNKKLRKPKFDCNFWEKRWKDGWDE

Turning to “Osm1 (fumarate reductase), endogenous mitochondrial form (from UniProt P21375 33-501) (enzyme)”, the fraction copurified worked out at 10%.
